The results in this text go back to patent US20220372154A1 (APEXIGEN, published 2022).

One test deals with CD40 (UniProt P25942 21-193, limits assumed). Nature of the test: ELISA on coated CD40, OD 650 nm. As for the experimental part:
(§1) To test binding to TNFR family members, target proteins were coated on ELISA plates at 1 μg/mL at 4° C. overnight. Plates were washed, blocked, and antibodies were added at indicated concentrations for 1 hour at RT. Positive control antibodies for each protein were used at ˜1 ug/mL. Antibodies were washed and detected with anti-human IgG HRP for 1 hour. Assay was developed using TMB substrate for 10 minutes. For cell-binding, human CD4+ T cells purified from buffy coats were cultured in flat-bottom plates with anti-CD3/CD28 for 24 hours. Cells were harvested and stained for viability, CD4, CD25 and FOXP3. Test antibody staining was detected using anti-human IgG APC. Binding titration of test antibodies was evaluated on CD4+CD25hiFOXP3+ regulatory T cells and plotted as percent binding.
For orientation: An ELISA detects its analyte on a solid surface through an enzyme-linked reagent.

Another test addresses T1, osteoprotegerin (OPG) (UniProt O00300 22-401, limits assumed).
T1 sequence (looked up): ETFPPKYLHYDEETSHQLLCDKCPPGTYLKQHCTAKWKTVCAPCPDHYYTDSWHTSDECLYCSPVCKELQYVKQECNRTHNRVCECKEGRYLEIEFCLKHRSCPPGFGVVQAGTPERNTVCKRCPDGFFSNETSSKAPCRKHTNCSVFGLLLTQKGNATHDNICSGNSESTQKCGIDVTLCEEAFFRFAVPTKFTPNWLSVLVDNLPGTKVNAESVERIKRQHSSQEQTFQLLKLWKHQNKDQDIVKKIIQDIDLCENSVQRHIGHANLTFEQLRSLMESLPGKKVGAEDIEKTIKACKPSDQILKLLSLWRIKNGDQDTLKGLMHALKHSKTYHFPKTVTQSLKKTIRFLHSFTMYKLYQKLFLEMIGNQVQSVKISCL
Nature of the test: ELISA on coated OPG, OD 650 nm. As for the experimental part: as §1

The target in test [1] is T2, human TNFR2 expressed on cells (human, UniProt P20333 23-461).
T2 construct: whole, on cells; also called hTNFR2 (cell); CHO-TNFR2
T2 sequence (looked up): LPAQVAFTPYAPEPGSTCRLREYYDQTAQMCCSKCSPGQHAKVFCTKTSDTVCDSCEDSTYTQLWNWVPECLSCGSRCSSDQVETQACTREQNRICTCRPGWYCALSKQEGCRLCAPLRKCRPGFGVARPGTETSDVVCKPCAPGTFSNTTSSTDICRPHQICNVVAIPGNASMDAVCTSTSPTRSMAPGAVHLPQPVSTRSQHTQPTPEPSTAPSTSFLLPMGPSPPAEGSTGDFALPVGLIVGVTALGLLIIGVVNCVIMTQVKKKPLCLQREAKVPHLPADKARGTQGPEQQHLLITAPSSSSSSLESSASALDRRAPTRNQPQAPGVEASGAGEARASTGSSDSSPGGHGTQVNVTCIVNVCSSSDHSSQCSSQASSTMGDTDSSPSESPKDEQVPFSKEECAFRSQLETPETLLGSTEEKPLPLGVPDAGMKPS
The test is described as follows: cell binding on TNFR2-overexpressing (OE) cells.

The target in test [2] is T2, human TNFR2 expressed on cells. The test is described as follows: flow cytometry on cells expressing human TNFR2, MFI median. For orientation: Flow cytometry measures light scatter and fluorescence of single cells or particles in a stream.
The target is the same in test [3]. The test is described as follows: flow cytometry, cell-expressed human TNFR2.
The next test addresses T3, death receptor 6 (DR6) (UniProt O75509 42-349, limits assumed).
T3 sequence (looked up): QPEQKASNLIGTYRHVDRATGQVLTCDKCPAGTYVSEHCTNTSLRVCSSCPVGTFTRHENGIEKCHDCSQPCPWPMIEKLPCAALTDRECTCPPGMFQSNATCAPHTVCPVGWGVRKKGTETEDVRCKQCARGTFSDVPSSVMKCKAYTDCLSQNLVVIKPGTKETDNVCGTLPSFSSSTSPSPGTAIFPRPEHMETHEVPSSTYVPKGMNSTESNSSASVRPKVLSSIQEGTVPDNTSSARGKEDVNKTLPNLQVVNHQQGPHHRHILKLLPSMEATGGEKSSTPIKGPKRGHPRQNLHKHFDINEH
The test is described as follows: ELISA on coated DR6, OD 650 nm. As to the method: as §1

Test [4] addresses T4, human TNFR1-His tagged protein (human, UniProt P19438 30-211, limits assumed).
T4 construct: also called soluble human TNFR1; not shown: His tag
T4 sequence (looked up): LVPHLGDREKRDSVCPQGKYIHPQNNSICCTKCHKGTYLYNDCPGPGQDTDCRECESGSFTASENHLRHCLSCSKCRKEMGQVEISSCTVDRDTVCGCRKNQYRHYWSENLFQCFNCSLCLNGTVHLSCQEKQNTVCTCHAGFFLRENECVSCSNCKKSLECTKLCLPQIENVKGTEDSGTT
Nature of the test: ELISA on coated TNFR1, OD 450 nm. As to the method: as §1

In test [5] the target is T2, human TNFR2 expressed on cells. The test is described as follows: cell-based or functional assay.
In test [6] the target is T5, human TNFR2-His tagged protein (soluble) (human, UniProt P20333 23-257).
T5 construct: also called hTNFR2 (soluble); soluble TNFR2-His; not shown: His tag
T5 sequence (looked up): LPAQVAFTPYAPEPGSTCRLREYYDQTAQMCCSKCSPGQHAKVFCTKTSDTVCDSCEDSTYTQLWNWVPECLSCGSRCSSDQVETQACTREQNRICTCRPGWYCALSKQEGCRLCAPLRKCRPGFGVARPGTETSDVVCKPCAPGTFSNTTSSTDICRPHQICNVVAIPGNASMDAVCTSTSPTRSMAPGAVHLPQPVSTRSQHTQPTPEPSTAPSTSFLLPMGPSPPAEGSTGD
Nature of the test: ELISA, soluble human TNFR2.

Test [7] concerns the target T6, herpesvirus entry mediator (HVEM) (UniProt Q92956 39-202, limits assumed).
T6 sequence (looked up): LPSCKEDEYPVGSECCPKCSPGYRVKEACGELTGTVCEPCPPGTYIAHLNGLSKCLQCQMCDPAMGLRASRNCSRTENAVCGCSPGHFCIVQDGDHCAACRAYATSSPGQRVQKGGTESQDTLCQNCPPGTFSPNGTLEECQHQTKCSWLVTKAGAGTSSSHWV
The test is described as follows: ELISA on coated HVEM, OD 650 nm. As for the experimental part:
as §1

Test [8] has as its target T2, human TNFR2 expressed on cells. The test is described as follows: blocking of biotinylated TNF-α on TNFR2-CHO cells, flow cytometry. As for the experimental part:
TNFR2-overexpressing CHO cells were plated at 100,000 cells per well. Cells were incubated with the indicated antibodies for 30 minutes on ice. […] Cells were analyzed using Cytoflex or MACSQuant flow cytometer. Assay was repeated twice.

The target in test [9] is T5, human TNFR2-His tagged protein (soluble). Nature of the test: ELISA on coated hTNFR2-His, OD 450 nm.
Test [10] addresses T7, TNFR2 (as used in the Octet measurement) (UniProt P20333 23-257, limits assumed).
T7 construct: Probably human soluble TNFR2; the legend says only TNFR2
T7 sequence (looked up): T5 sequence (looked up)
The test is described as follows: Octet (BLI), monovalent binding. (Biolayer interferometry detects binding as a change in optical thickness at a sensor tip.)

For test [11], the target named is T2, human TNFR2 expressed on cells. The test is described as follows: Primary Cell Affinity; binding titration on activated human Tregs, flow cytometry. As to the method: as §1
In test [12] the target is T8, cynomolgus TNFR2-His tagged protein (cynomolgus, UniProt A0A2K5VET2 132-366).
T8 construct: also called Cyno TNFR2; cynomolgus TNFR2 protein; not shown: His tag
T8 sequence: T5 sequence (looked up) with S16G, S36P, P117Q, N164H, E210A, S216G, M223V
The test is described as follows: ELISA, cynomolgus TNFR2.

For another test, the target named is T9, TNFR-Fc (UniProt P20333 23-257, limits assumed).
T9 construct: Printed only as TNFR-Fc; not shown: Fc part
T9 sequence (looked up): T5 sequence (looked up)
Nature of the test: TNF-α blocking ELISA (soluble).

Where a chain is given by its changes, count along the chain named.

Sequence of CD40 (P25942 21-193 limits assumed): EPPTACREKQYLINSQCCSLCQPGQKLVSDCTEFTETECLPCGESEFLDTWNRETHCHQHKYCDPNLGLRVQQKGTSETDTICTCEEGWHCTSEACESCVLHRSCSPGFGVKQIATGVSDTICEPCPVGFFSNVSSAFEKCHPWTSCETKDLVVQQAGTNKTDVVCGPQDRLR

B1: humanized antibody h600-25-108 (antibody, V domains shown)
VH: EVQLVESGGGLVQPGGSLRLSCAASGFSLSDYFMTWVRQAPGKGLEWVGIINTGGDSYYATWAKGRFTISRDNSKNTLYLQMNSLRAEDTAVYYCARDTGYGGYDYAGSFDPWGQGTLVTVSS
VL: DIQMTQSPSSVSASVGDRVTITCQASENINSWLAWYQQKPGKAPKLLIYEASKLASGVPSRFSGSGSGTDFTLTISSLQPEDFATYYCQQGYIYIDVGNIFGGGTKVEIK
B1: the binding result (in the test with CD40; with osteoprotegerin (OPG); with death receptor 6 (DR6); in [4]; in test [7]) was “no binding (tested: about 67 nM)” throughout. In addition, the values for the Kd in test [1] and in test [11] were 0.0994 nM and 0.05 nM, respectively. Besides, the “EC50 (read off the curve)” value in [2] is about 0.3 nM; in [9], about 0.1 nM. The EC50 in [3] worked out at 0.31 nM; in [6] it was 0.105 nM; in [12] it was 0.046 nM. In addition, the “ADCC EC50 (reporter line)” value in test [5] was 1.14 nM. In addition, in test [5], the “ADCP EC50” value was determined as 0.92 nM. For the same molecule, the IC50 in [8] was 0.198 nM; in the test with TNFR-Fc, 1.33 nM. The molecule also displayed a koff in [10] of 0.000233 s⁻¹. This molecule also came in with a kon in test [10] of 376000 M⁻¹ s⁻¹.

The term Kd denotes the constant that tells how readily two partners part at equilibrium. Low values mean higher affinity, high ones lower affinity. A word on the EC50 (read off the curve): it is the concentration needed to bring the measured effect to its halfway point. High values mean weaker potency, low ones greater potency. By EC50 is commonly meant the concentration at which the effect is half-maximal. As usually defined, the IC50 is the midpoint of a concentration-inhibition curve. By koff is commonly meant the first-order rate constant of dissociation. High values mean fast dissociation, low ones slow dissociation. The kon is the rate constant with which the complex forms. Low readings indicate slow association, high ones fast association.
